From patent publication US20210388087A1 (Chugai, published 2021) come the findings set out here.

To fix the notation:
B1: GLS3000 F55S (antibody, name in Kabat numbering, V domains shown)
VH: QVQLVESGGGVVQPGRSLRLSCAASGFTFSNAWMHWVRQAPGKGLEWVAQIKAKSNNYATYYAESVKGRFTISRDDSKNSLYLQMNSLKTEDTAVYYCRYVHYGAYYGVDAWGQGTTVTVSS
VL: DIVMTQSPLSLPVTPGEPASISCRSSQSLVHSNRNTYLHWYQQKPGQAPRLLIYKVSNRSSGVPDRFSGSGSGTDFTLKISRVEAEDVGVYYCGQGTQVPYTFGQGTKLEIK
notes: one-arm IgG as m2
B2: GLS3000 G89F (antibody, name in Kabat numbering, V domains shown)
VH: QVQLVESGGGVVQPGRSLRLSCAASGFTFSNAWMHWVRQAPGKGLEWVAQIKAKSNNYATYYAESVKGRFTISRDDSKNSLYLQMNSLKTEDTAVYYCRYVHYGAYYGVDAWGQGTTVTVSS
VL: DIVMTQSPLSLPVTPGEPASISCRSSQSLVHSNRNTYLHWYQQKPGQAPRLLIYKVSNRFSGVPDRFSGSGSGTDFTLKISRVEAEDVGVYYCFQGTQVPYTFGQGTKLEIK
notes: one-arm IgG as m2
B3: GLS3000 F55T (antibody, name in Kabat numbering, V domains shown)
VH: QVQLVESGGGVVQPGRSLRLSCAASGFTFSNAWMHWVRQAPGKGLEWVAQIKAKSNNYATYYAESVKGRFTISRDDSKNSLYLQMNSLKTEDTAVYYCRYVHYGAYYGVDAWGQGTTVTVSS
VL: DIVMTQSPLSLPVTPGEPASISCRSSQSLVHSNRNTYLHWYQQKPGQAPRLLIYKVSNRTSGVPDRFSGSGSGTDFTLKISRVEAEDVGVYYCGQGTQVPYTFGQGTKLEIK
notes: one-arm IgG as m2
B4: GLS3000 G89L (antibody, name in Kabat numbering, V domains shown)
VH: QVQLVESGGGVVQPGRSLRLSCAASGFTFSNAWMHWVRQAPGKGLEWVAQIKAKSNNYATYYAESVKGRFTISRDDSKNSLYLQMNSLKTEDTAVYYCRYVHYGAYYGVDAWGQGTTVTVSS
VL: DIVMTQSPLSLPVTPGEPASISCRSSQSLVHSNRNTYLHWYQQKPGQAPRLLIYKVSNRFSGVPDRFSGSGSGTDFTLKISRVEAEDVGVYYCLQGTQVPYTFGQGTKLEIK
notes: one-arm IgG as m2
B5: GLS3000 F55V (antibody, name in Kabat numbering, V domains shown)
VH: QVQLVESGGGVVQPGRSLRLSCAASGFTFSNAWMHWVRQAPGKGLEWVAQIKAKSNNYATYYAESVKGRFTISRDDSKNSLYLQMNSLKTEDTAVYYCRYVHYGAYYGVDAWGQGTTVTVSS
VL: DIVMTQSPLSLPVTPGEPASISCRSSQSLVHSNRNTYLHWYQQKPGQAPRLLIYKVSNRVSGVPDRFSGSGSGTDFTLKISRVEAEDVGVYYCGQGTQVPYTFGQGTKLEIK
notes: one-arm IgG as m2
B6: GLS3000 G89H (antibody, name in Kabat numbering, V domains shown)
VH: QVQLVESGGGVVQPGRSLRLSCAASGFTFSNAWMHWVRQAPGKGLEWVAQIKAKSNNYATYYAESVKGRFTISRDDSKNSLYLQMNSLKTEDTAVYYCRYVHYGAYYGVDAWGQGTTVTVSS
VL: DIVMTQSPLSLPVTPGEPASISCRSSQSLVHSNRNTYLHWYQQKPGQAPRLLIYKVSNRFSGVPDRFSGSGSGTDFTLKISRVEAEDVGVYYCHQGTQVPYTFGQGTKLEIK
notes: one-arm IgG as m2
B7: GLS3000 G89K (antibody, name in Kabat numbering, V domains shown)
VH: QVQLVESGGGVVQPGRSLRLSCAASGFTFSNAWMHWVRQAPGKGLEWVAQIKAKSNNYATYYAESVKGRFTISRDDSKNSLYLQMNSLKTEDTAVYYCRYVHYGAYYGVDAWGQGTTVTVSS
VL: DIVMTQSPLSLPVTPGEPASISCRSSQSLVHSNRNTYLHWYQQKPGQAPRLLIYKVSNRFSGVPDRFSGSGSGTDFTLKISRVEAEDVGVYYCKQGTQVPYTFGQGTKLEIK
notes: one-arm IgG as m2
B8: GLS3000 G89M (antibody, name in Kabat numbering, V domains shown)
VH: QVQLVESGGGVVQPGRSLRLSCAASGFTFSNAWMHWVRQAPGKGLEWVAQIKAKSNNYATYYAESVKGRFTISRDDSKNSLYLQMNSLKTEDTAVYYCRYVHYGAYYGVDAWGQGTTVTVSS
VL: DIVMTQSPLSLPVTPGEPASISCRSSQSLVHSNRNTYLHWYQQKPGQAPRLLIYKVSNRFSGVPDRFSGSGSGTDFTLKISRVEAEDVGVYYCMQGTQVPYTFGQGTKLEIK
notes: one-arm IgG as m2
B9: GLS3000 F55Y (antibody, name in Kabat numbering, V domains shown)
VH: QVQLVESGGGVVQPGRSLRLSCAASGFTFSNAWMHWVRQAPGKGLEWVAQIKAKSNNYATYYAESVKGRFTISRDDSKNSLYLQMNSLKTEDTAVYYCRYVHYGAYYGVDAWGQGTTVTVSS
VL: DIVMTQSPLSLPVTPGEPASISCRSSQSLVHSNRNTYLHWYQQKPGQAPRLLIYKVSNRYSGVPDRFSGSGSGTDFTLKISRVEAEDVGVYYCGQGTQVPYTFGQGTKLEIK
notes: one-arm IgG as m2
B10: GLS3000 G89I (antibody, name in Kabat numbering, V domains shown)
VH: QVQLVESGGGVVQPGRSLRLSCAASGFTFSNAWMHWVRQAPGKGLEWVAQIKAKSNNYATYYAESVKGRFTISRDDSKNSLYLQMNSLKTEDTAVYYCRYVHYGAYYGVDAWGQGTTVTVSS
VL: DIVMTQSPLSLPVTPGEPASISCRSSQSLVHSNRNTYLHWYQQKPGQAPRLLIYKVSNRFSGVPDRFSGSGSGTDFTLKISRVEAEDVGVYYCIQGTQVPYTFGQGTKLEIK
notes: one-arm IgG as m2
B11: GLS3000 G89A (antibody, name in Kabat numbering, V domains shown)
VH: QVQLVESGGGVVQPGRSLRLSCAASGFTFSNAWMHWVRQAPGKGLEWVAQIKAKSNNYATYYAESVKGRFTISRDDSKNSLYLQMNSLKTEDTAVYYCRYVHYGAYYGVDAWGQGTTVTVSS
VL: DIVMTQSPLSLPVTPGEPASISCRSSQSLVHSNRNTYLHWYQQKPGQAPRLLIYKVSNRFSGVPDRFSGSGSGTDFTLKISRVEAEDVGVYYCAQGTQVPYTFGQGTKLEIK
notes: one-arm IgG as m2
B12: GLS3000 G89N (antibody, name in Kabat numbering, V domains shown)
VH: QVQLVESGGGVVQPGRSLRLSCAASGFTFSNAWMHWVRQAPGKGLEWVAQIKAKSNNYATYYAESVKGRFTISRDDSKNSLYLQMNSLKTEDTAVYYCRYVHYGAYYGVDAWGQGTTVTVSS
VL: DIVMTQSPLSLPVTPGEPASISCRSSQSLVHSNRNTYLHWYQQKPGQAPRLLIYKVSNRFSGVPDRFSGSGSGTDFTLKISRVEAEDVGVYYCNQGTQVPYTFGQGTKLEIK
notes: one-arm IgG as m2
B13: GLS3000 G89D (antibody, name in Kabat numbering, V domains shown)
VH: QVQLVESGGGVVQPGRSLRLSCAASGFTFSNAWMHWVRQAPGKGLEWVAQIKAKSNNYATYYAESVKGRFTISRDDSKNSLYLQMNSLKTEDTAVYYCRYVHYGAYYGVDAWGQGTTVTVSS
VL: DIVMTQSPLSLPVTPGEPASISCRSSQSLVHSNRNTYLHWYQQKPGQAPRLLIYKVSNRFSGVPDRFSGSGSGTDFTLKISRVEAEDVGVYYCDQGTQVPYTFGQGTKLEIK
notes: one-arm IgG as m2
B14: GLS3000 F55W (antibody, name in Kabat numbering, V domains shown)
VH: QVQLVESGGGVVQPGRSLRLSCAASGFTFSNAWMHWVRQAPGKGLEWVAQIKAKSNNYATYYAESVKGRFTISRDDSKNSLYLQMNSLKTEDTAVYYCRYVHYGAYYGVDAWGQGTTVTVSS
VL: DIVMTQSPLSLPVTPGEPASISCRSSQSLVHSNRNTYLHWYQQKPGQAPRLLIYKVSNRWSGVPDRFSGSGSGTDFTLKISRVEAEDVGVYYCGQGTQVPYTFGQGTKLEIK
notes: one-arm IgG as m2
B15: GLS3000 G89E (antibody, name in Kabat numbering, V domains shown)
VH: QVQLVESGGGVVQPGRSLRLSCAASGFTFSNAWMHWVRQAPGKGLEWVAQIKAKSNNYATYYAESVKGRFTISRDDSKNSLYLQMNSLKTEDTAVYYCRYVHYGAYYGVDAWGQGTTVTVSS
VL: DIVMTQSPLSLPVTPGEPASISCRSSQSLVHSNRNTYLHWYQQKPGQAPRLLIYKVSNRFSGVPDRFSGSGSGTDFTLKISRVEAEDVGVYYCEQGTQVPYTFGQGTKLEIK
notes: one-arm IgG as m2

T1 sequence (P07766 23-126): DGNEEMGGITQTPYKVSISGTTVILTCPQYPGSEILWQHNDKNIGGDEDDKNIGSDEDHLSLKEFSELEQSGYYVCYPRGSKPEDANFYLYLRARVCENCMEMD

The assay concerns the target T1, CD3 epsilon homodimer protein (UniProt P07766 23-126).
T1 construct: also called CD3 (CD3 epsilon)
The assay can be described thus: SPR Biacore T200, CD3e homodimer on chip, vs unaltered GLS3000 antibody.
Experimental: An appropriate amount of CD3 epsilon homodimer protein was immobilized onto Sensor chip CM4 (GE Healthcare Japan Corp.) by the amine coupling method. Then, the antibody having an appropriate concentration was injected thereto as an analyte and allowed to interact with the CD3 epsilon homodimer protein on the sensor chip. Then, the sensor chip was regenerated by the injection of 10 mmol/L glycine-HCl (pH 1.5). The assay was conducted at 25 degrees C., and HBS-EP+(GE Healthcare Japan Corp.) was used as a running buffer. […] Each parameter was calculated using Biacore T200 Evaluation Software (GE Healthcare Japan Corp.).
As for B1, the “ratio of amounts bound (Z=Y/X)” value stood at 0.69. As to B2, the “ratio of amounts bound (Z=Y/X)” value came to 1.09. B3: the “ratio of amounts bound (Z=Y/X)” value turned out to be 0.41. On to B4, for which the “ratio of amounts bound (Z=Y/X)” value came to 0.94.

For B5, the “ratio of amounts bound (Z=Y/X)” value came out at 0.71. As to B6, the “ratio of amounts bound (Z=Y/X)” value is 0.7.

For B7, the “ratio of amounts bound (Z=Y/X)” value stood at 0.4. Take B8: the “ratio of amounts bound (Z=Y/X)” value is 0.52. The result for B9 reads 0.92; that for B10, 1.07; that for B11, 1.13. With B12, the “ratio of amounts bound (Z=Y/X)” value came to 0.8.

As to B13, the “ratio of amounts bound (Z=Y/X)” value worked out at 0.33. Then B14, with 0.69.

On to B15, for which the “ratio of amounts bound (Z=Y/X)” value turned out to be 0.26.
